Laboratory results as given in the supplement of paper PMC7125110.
± gives the standard error. For some of these results: Variants at the floor of the assay were thinned out.

B1: glmS ribozyme (parent)
chain: AUAAAAGCGCCAGAACUACAGAAAUGUAGUUGACGAGGAGGAGGUUUAUCGAAUUUUCGGCGGAUGCCUCCAAA

Assays:
Conditions in all cases: with glucosamine-6-phosphate
glucosamine-6-phosphate [1] = variants of: B1; test: kcat; higher = faster cleavage; RNA array
Procedure, shortened: (§1)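 Using a hybridised Cy3 probe at 37 °C, barcoded ribozyme variants transcribed in situ by E. coli RNA polymerase on sequenced MiSeq chips were monitored across tiles imaged over ~14 h. The flow contained glucosamine-6-phosphate from 40 μM to 10 mM in HEPES/KCl/Mg(OAc)2 buffer. Signals were normalised to baseline and to non-cleaving reference variants before per-tile medians were fit to one- or two-exponential decays to yield kobs. Weighted Michaelis–Menten fits across concentrations gave kcat and KM.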

glucosamine-6-phosphate [2] = variants of: B1; test: self-cleavage kobs at 160 uM GlcN6P; higher = faster cleavage; RNA array
Procedure, shortened: as §1

glucosamine-6-phosphate [3] = variants of: B1; test: self-cleavage kobs at 640 uM GlcN6P; higher = faster cleavage; RNA array
Procedure, shortened: as §1

glucosamine-6-phosphate [4] = variants of: B1; test: self-cleavage kobs at 2500 uM GlcN6P; higher = faster cleavage; RNA array
Procedure, shortened: as §1

glucosamine-6-phosphate [5] = variants of: B1; test: self-cleavage kobs at 10000 uM GlcN6P; higher = faster cleavage; RNA array
Procedure, shortened: as §1

glucosamine-6-phosphate [6] = variants of: B1; test: KM; higher = weaker cofactor use; RNA array
Procedure, shortened: as §1

glucosamine-6-phosphate [7] = variants of: B1; test: self-cleavage kobs at 40 uM GlcN6P; higher = faster cleavage; RNA array
Procedure, shortened: as §1

Row | Variant | kcat (glucosamine-6-phosphate [1]) | self-cleavage kobs at 160 uM GlcN6P (glucosamine-6-phosphate [2]) | self-cleavage kobs at 640 uM GlcN6P (glucosamine-6-phosphate [3]) | self-cleavage kobs at 2500 uM GlcN6P (glucosamine-6-phosphate [4]) | self-cleavage kobs at 10000 uM GlcN6P (glucosamine-6-phosphate [5]) | KM (glucosamine-6-phosphate [6]) | self-cleavage kobs at 40 uM GlcN6P (glucosamine-6-phosphate [7])
1 | AUAAAAGCGCCAGAACUACAGAAAUGUAGUUGACGAGGAGGAGGUUCAUCGAAUUUUCGGCGGAUGUCUCCAAA [U47C C67U] | 0.000295 ± 6.9e-05 s⁻¹ | 6.7e-05 ± 2.4e-05 s⁻¹ | 0.000131 ± 3.2e-05 s⁻¹ | 0.000177 ± 3.5e-05 s⁻¹ | 0.000358 ± 6e-05 s⁻¹ | – | –
2 | AUAAAAGCGCCAGAACUACAGAAAUGUAGUUGACGAGGAGGAGGUUCAUCGCAUUUUCGGCGGAUGCCUCCAAA [U47C A52C] | 4.02e-05 ± 1.2e-06 s⁻¹ | < 1e-05 s⁻¹ | < 1e-05 s⁻¹ | – | – | 3020 ± 290 µM | –
3 | AUAAAAGCGCCAGAACUACAGAAAUGUAGUUGACGAGGAGGAGGUUCAUCGUAUUUUCGGCGGAUGCCUCCAAA [U47C A52U] | 0.00034 ± 5.8e-05 s⁻¹ | – | 3.84e-05 ± 1.6e-05 s⁻¹ | 0.000145 ± 2.3e-05 s⁻¹ | 0.000231 ± 4.7e-05 s⁻¹ | 3930 ± 1200 µM | –
4 | AUAAAAGCGCCAGAACUACAGAAAUGUAGUUGACGAGGAGGAGGUUCAUUGAAUUUUCGGCGGAUGCCUCCAAA [U47C C50U] | 4.46e-05 ± 3.5e-07 s⁻¹ | – | – | 2.69e-05 ± 1.3e-05 s⁻¹ | 3.82e-05 ± 1.1e-05 s⁻¹ | 1670 ± 52 µM | –
5 | AUAAAAGCGCCAGAACUACAGAAAUGUAGUUGACGAGGAGGAGGUUCAUAGAAUUUUCGGCGGAUGCCUCCAAA [U47C C50A] | 3.31e-05 ± 5.7e-06 s⁻¹ | – | – | – | – | 3090 ± 1500 µM | –
6 | AUAAAAGCGCCAGAACUACAGAAAUGUAGUUGACGAGGAGGAGGUUAAUCGAAUUUUCGGCGGAGGCCCCCAAA [U47A U65G U69C] | 0.00209 ± 0.00057 s⁻¹ | 0.000128 ± 3.1e-05 s⁻¹ | – | 0.00114 ± 0.00024 s⁻¹ | 0.00154 ± 0.0005 s⁻¹ | 2700 ± 1100 µM | –
7 | AUAAAAGCGCCAGAACUACAGAAAUGUAGUUGACGAGGAGGAGGUUCAUCGAUUUUUCGGCGGAUGCCUCCAAA [U47C A53U] | 0.00157 ± 0.00025 s⁻¹ | 0.000209 ± 4.6e-05 s⁻¹ | 0.000671 ± 0.00012 s⁻¹ | 0.0012 ± 0.00023 s⁻¹ | 0.00124 ± 0.00025 s⁻¹ | 1150 ± 280 µM | 4.38e-05 ± 9.7e-06 s⁻¹
8 | AUAAAAGCGCCAGAACUACAGAAAUGUAGUUGACGAGGAGGAGGUUCAUCGAAUUUUCGGCGGAUGCCUACAAA [U47C C70A] | 0.000334 ± 9.1e-05 s⁻¹ | – | 0.000119 ± 2.1e-05 s⁻¹ | 0.000426 ± 9.7e-05 s⁻¹ | 0.000264 ± 4.8e-05 s⁻¹ | – | –
9 | AUAAAAGCGCCAGAACUACAGAAAUGUAGUUGACGAGGAGGAGGUUCAUCGAAUUUUCGGCGGUUGCCUCCAAA [U47C A64U] | 0.000108 ± 8.5e-06 s⁻¹ | – | 7.89e-05 ± 1.8e-05 s⁻¹ | 9.46e-05 ± 2.2e-05 s⁻¹ | 0.000102 ± 1.2e-05 s⁻¹ | 363 ± 170 µM | –
10 | AUAAAAGCGCCAGAACUACAGAAAUGUAGUUGACGAGGAGGAGGUUCAUCGAAUUUUCGGCGGGUGCCUCCAAA [U47C A64G] | 0.00525 ± 0.0013 s⁻¹ | 0.000324 ± 9e-05 s⁻¹ | 0.00115 ± 0.00027 s⁻¹ | 0.0019 ± 0.00068 s⁻¹ | 0.00499 ± 0.00066 s⁻¹ | 1890 ± 650 µM | 0.000131 ± 1.7e-05 s⁻¹
11 | AUAAAAGCGCCAGAACUACAGAAAUGUAGUUGACGAGGAGGAGGUUAAUCGAAUUUUCGGCGGAUGCCGCCAAA [U47A U69G] | 7.34e-05 ± 1.1e-05 s⁻¹ | – | 7.68e-05 ± 1.1e-05 s⁻¹ | 8.85e-05 ± 1.1e-05 s⁻¹ | 5.37e-05 ± 1e-05 s⁻¹ | – | –
12 | AUAAAAGCGCCAGAACUACAGAAAUGUAGUUGACGAGGAGGAGGUUCACCGAAUUUUCGGCGGAUGCCUCCAAA [U47C U49C] | < 1e-05 s⁻¹ | – | < 1e-05 s⁻¹ | – | – | – | –
13 | AUAAAAGCGCCAGAACUACAGAAAUGUAGUUGACGAGGAGGAGGUUCAUCGAAUUUUAGGCGGAUGCCUCCAAA [U47C C58A] | 0.00036 ± 6e-05 s⁻¹ | – | 3.95e-05 ± 1.1e-05 s⁻¹ | 0.00016 ± 2.7e-05 s⁻¹ | 0.000244 ± 3.3e-05 s⁻¹ | 4240 ± 1300 µM | –
14 | AUAAAAGCGCCAGAACUACAGAAAUGUAGUUGACGAGGAGGAGGUUCAUCGAAUUUUUGGCGGAUGCCUCCAAA [U47C C58U] | 0.000109 ± 7.3e-06 s⁻¹ | – | – | – | 4.92e-05 ± 8.1e-06 s⁻¹ | – | –
15 | AUAAAAGCGCCAGAACUACAGAAAUGUAGUUGACGAGGAGGAGGUUAAUCGAAUUUUCGGCGGACGCCUCCAAA [U47A U65C] | 0.000833 ± 0.00017 s⁻¹ | – | 0.000158 ± 3.6e-05 s⁻¹ | 0.000533 ± 0.00012 s⁻¹ | 0.000645 ± 0.00011 s⁻¹ | 2410 ± 980 µM | –
16 | AUAAAAGCGCCAGAACUACAGAAAUGUAGUUGACGAGGAGGAGGUUAAUCGAAUUUUCGGCGGAGGCCUCCAAA [U47A U65G] | 0.00507 ± 0.0003 s⁻¹ | 0.000236 ± 6.6e-05 s⁻¹ | 0.000735 ± 0.00012 s⁻¹ | 0.00229 ± 0.00035 s⁻¹ | 0.00369 ± 0.00037 s⁻¹ | 3540 ± 320 µM | 5.62e-05 ± 9.4e-06 s⁻¹
17 | AUAAAAGCGCCAGAACUACAGAAAUGUAGUUGACGAGGAGGAGGUUCAUCGAAGUUUCGGCGGAUGCCUCCAAA [U47C U54G] | 0.00375 ± 0.00045 s⁻¹ | – | 0.0013 ± 0.00028 s⁻¹ | 0.00193 ± 0.00076 s⁻¹ | 0.00359 ± 0.00065 s⁻¹ | 1210 ± 200 µM | 0.000121 ± 1.7e-05 s⁻¹
